Measurements: article PMC5924515

Columns and labels:
[1] = biological target: T1, VapB15;VapC15-His6 (Synechocystis sp. PCC 6803;Synechocystis sp. PCC 6803) (UniProt P74009+P74010); assay: EMSA
T1 sequence 1: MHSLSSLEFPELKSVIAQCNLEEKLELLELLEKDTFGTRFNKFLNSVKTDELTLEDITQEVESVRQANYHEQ
T1 sequence 2: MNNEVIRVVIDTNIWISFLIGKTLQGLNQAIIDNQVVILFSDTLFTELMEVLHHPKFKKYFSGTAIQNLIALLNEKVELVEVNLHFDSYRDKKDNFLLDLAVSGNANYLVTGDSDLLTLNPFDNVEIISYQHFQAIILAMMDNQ

[2] = biological target: T2, VapB15 (Synechocystis sp. PCC 6803) (UniProt P74009); assay: EMSA; conditions: 100 mM Tris-HCl pH 8.0, 100 mM NaCl, 1 mM DTT, 10% glycerol, 0.1 mg/mL sonicated salmon sperm DNA, 25 C, 30 min; 5% native PAGE in 0.5x TBE
T2 sequence: T1 sequence 1

Sequence	binding [1]	binding [2]
CAAAGCTCTGGCAACCCTGCAGAACTTTAAACCTATCCCCCTAGGCTTGGGGCCAGGGGACTTTTCAAGCAACTCCTTGGGGCACTATTTGGAAATGTGATAATGGGAGTTATAATTCGCCTCTCGGAGAAAAGTTGAAATGCACTCATTGTCATCACTGGAATTTC (double strand) [P1 (PvapBC15 promoter, PS1 and PS2)]	binds more weakly	binds
GAAATTCCAGTGATGACAATGAGTGCATTTCAACTTTTCTCCGAGAGGCGAATTATAACTCCCATTATCACATTTCCAAATAGTGCCCCAAGGAGTTGCTTGAAAAGTCCCC (double strand) [P2 (3' half of PS1 and whole PS2)]	–	no binding
